B1: Non-catalytic caspase homolog csp-3 (Caenorhabditis elegans), G5ECW5 (parent)
chain: MFFGKLGGFAFFLQRAVRCDGFIDNFFDRIPKFFQFMKSKFPSHQTSSSQADLLVSFSTSPGFLSFKDETKDTWYIQELYRVIIENAKDTHLADLLTETNRRVVEKYEADKVVFVCKQAPEFWSRFTKQLFFMSRNDVF
partner: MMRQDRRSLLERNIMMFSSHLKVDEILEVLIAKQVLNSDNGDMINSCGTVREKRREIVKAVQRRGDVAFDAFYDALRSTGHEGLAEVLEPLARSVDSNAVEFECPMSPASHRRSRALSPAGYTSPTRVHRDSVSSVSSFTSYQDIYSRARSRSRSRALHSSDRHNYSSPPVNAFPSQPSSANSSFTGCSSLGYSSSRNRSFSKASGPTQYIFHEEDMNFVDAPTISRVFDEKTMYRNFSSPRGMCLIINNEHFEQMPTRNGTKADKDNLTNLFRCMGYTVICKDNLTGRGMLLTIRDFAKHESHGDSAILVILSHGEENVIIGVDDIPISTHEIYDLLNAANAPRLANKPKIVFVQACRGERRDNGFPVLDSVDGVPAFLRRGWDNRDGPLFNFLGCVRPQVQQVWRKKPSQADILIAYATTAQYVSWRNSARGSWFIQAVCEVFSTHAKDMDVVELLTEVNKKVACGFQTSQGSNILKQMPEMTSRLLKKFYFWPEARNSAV

Variants of: B1
Settings: with ced3_caeel ced-3, P42573

Row | Variant | effect of a mutation on the interaction
1 | MFFGKLGGFAFFLQRAVRCDGFIDNFFDRIPKFFQFMKSKFPSHQTSSSQADLLVSDSTSPGFLSFKDETKDTWYIQELYRVIIENAKDTHLADLLTETNRRVVEKYEADKVVFVCKQAPEFWSRFTKQLFFMSRNDVF | decreasing interaction

Variants of: B1
Settings: with ced3_caeel ced-3, P42573
Remark: another data set of the same source

Row | Variant | effect of a mutation on the interaction
2 | MFFGKLGGFAFFLQRAVRCDGFIDNFFDRIPKFFQFMKSKFPSHQTSSSQADLLVSDSTSPGFLSFKDETKDTWYIQELYRVIIENAKDTHLADLLTETNRRVVEKYEADKVVFVCKQAPEFWSRFTKQLFFMSRNDVF | decreasing interaction strength
